How the values were obtained:
[1] = molecular target: Kv7.2 helix B (hB residues S450–S590) (human); experiment: other fluorescence titration; competition: 12.5 nM D-CaM mixed with helix A (46.4 nM) or helix B (20.1 nM), isolated lobe added incrementally; no Ca2+; one site Hill fit, Kd derived assuming 1:1 binding
[2] = molecular target: Kv7.2 helix B (hB residues S450–S590) (human); experiment: other fluorescence titration; competition: 12.5 nM D-CaM mixed with helix A (65.6 nM) or helix B (42.6 nM), isolated lobe added incrementally; with Ca2+; one site Hill fit, Kd derived assuming 1:1 binding
[3] = molecular target: dansylated calmodulin (rat) (UniProt P0DP30); experiment: other fluorescence titration; 12.5 nM D-CaM, ligand added incrementally, enhancement of dansyl emission; 25 mM Tris-HCl, 120 mM KCl, 5 mM NaCl, 2 mM MgCl2, 10 mM EGTA, pH 7.4; no free Ca2+; apparent affinity (EC50 of a Hill fit)
[4] = molecular target: dansylated calmodulin (rat) (UniProt P0DP30); experiment: other fluorescence titration; 12.5 nM D-CaM, ligand added incrementally, enhancement of dansyl emission; D-CaM binding buffer with 3.9 µM free Ca2+ (9.63 mM Ca2+, 2 mM Mg2+, 10 mM EGTA, pH 7.4); apparent affinity (EC50 of a Hill fit)

| Substance | IC50 [1] [nM] | Kd [1] [nM] | IC50 [2] [nM] | Kd [2] [nM] | EC50 [3] [nM] | EC50 [4] [nM] |
| --- | --- | --- | --- | --- | --- | --- |
| CaM C-lobe (residues 79–148) (from UniProt P0DP23 80-149) (domain or fragment) | 238 | 231 | 244 | 229 |  |  |
| CaM N-lobe (residues 1–78) (from UniProt P0DP23 2-79) (domain or fragment) | 130 | 119 | 415 | 414 |  |  |
| Kv7.2 CaM binding domain (residues 310–548), Q2AB WT (domain or fragment) |  |  |  |  | 11 | 27.1 |
| Kv7.2 helix B (hB residues S450–S590) (domain or fragment) |  |  |  |  | 20.1 | 42.6 |

Reference: article PMC3904923
